Test results taken from article PMC6430559, “Antigenicity and Immunogenicity of Differentially Glycosylated Hepatitis C Virus E2 Envelope Proteins Expressed in Mammalian and Insect Cells” (Journal of Virology, 2019).

Tests used:
Test in all cases: BLI; Octet RED96; His6-tagged sE2 (5 ug/ml, 600 s) loaded on Ni2+-NTA biosensors and stabilised with EDC/NHS, quenched with 1 M ethanolamine pH 8.0; association 300 s, dissociation 300 s; 2-fold dilution series of CD81 or HMAb (IgG format); steady-state analysis by the legend, global fit by the methods; values may reflect bivalent IgG binding
[1] = target: Sf9-derived soluble HCV E2 glycoprotein (sE2), genotype 1a H77c, residues 384 to 661, monomeric (hepatitis C virus genotype 1a, strain H77c) (UniProt P27958)
[2] = target: HEK293-derived soluble HCV E2 glycoprotein (sE2), genotype 1a H77c, residues 384 to 661, monomeric (hepatitis C virus genotype 1a, strain H77c) (UniProt P27958)
[3] = target: T1, Sf9-derived soluble HCV E2 glycoprotein (sE2), genotype 1a H77c, residues 384 to 661, monomeric (hepatitis C virus genotype 1a, strain …, UniProt P27958 384-661, N-glycans at positions 417, 423, 430, 448, 476, 532, 540, 556, 576, 623 and 645; mainly paucimannose-type glycans, with or without one or two core fucose residues); details: both partners purified
T1 construct: HCV envelope glycoprotein E2 lacking the C-terminal transmembrane anchor, amino acids 384 to 661 of the strain 1a HCV H77c polyprotein; also called Sf9-derived sE2; Sf9 sE2; source: Sf9 cells infected with recombinant baculovirus, secreted; purified from culture supernatant (HisTrap Ni2+-NTA, Superdex 200; monomer peak); not shown: His6, C-terminal, kept

[4] = target: T2, HEK293-derived soluble HCV E2 glycoprotein (sE2), genotype 1a H77c, residues 384 to 661, monomeric (hepatitis C virus genotype 1a, strain …, UniProt P27958 384-661, N-glycans at positions 417, 423, 430, 448, 476, 532, 540, 556, 576, 623 and 645; mostly complex- and high-mannose-type glycans); details: both partners purified
T2 construct: HCV envelope glycoprotein E2 lacking the C-terminal transmembrane anchor, amino acids 384 to 661 of the strain 1a HCV H77c polyprotein; also called HEK293-derived sE2; HEK293 sE2; source: FreeStyle 293-F (HEK293-F) cells, transfected, secreted; purified from culture supernatant (HisTrap Ni2+-NTA, Superdex 200; monomer peak); not shown: His6, C-terminal, kept
T2 sequence (P27958 384-661): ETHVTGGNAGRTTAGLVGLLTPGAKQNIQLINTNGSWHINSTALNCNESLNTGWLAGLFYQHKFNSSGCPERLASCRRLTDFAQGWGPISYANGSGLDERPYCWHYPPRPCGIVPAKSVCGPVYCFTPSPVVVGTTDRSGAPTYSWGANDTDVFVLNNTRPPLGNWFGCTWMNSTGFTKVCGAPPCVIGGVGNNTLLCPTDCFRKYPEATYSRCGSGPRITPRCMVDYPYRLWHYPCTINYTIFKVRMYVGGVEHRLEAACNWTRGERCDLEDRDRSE

Sequence of HEK293-derived soluble HCV E2 glycoprotein (sE2), genotype 1a H77c, residues 384 to 661, monomeric (hepatitis C virus genotype 1a, strain H77c) (P27958 384-661): as above
Sequence of Sf9-derived soluble HCV E2 glycoprotein (sE2), genotype 1a H77c, residues 384 to 661, monomeric (hepatitis C virus genotype 1a, strain H77c) (P27958 384-661): as above
T1 sequence (P27958 384-661): as above

B1: Human monoclonal antibody (HMAb) HC33.1, specific for antigenic domain E of HCV E2 (antibody, V domains shown)
VH: EVQLVESGGGLVQPGGSLRLSCVASGLTFTNFAVSWVRQAPGKGLEWVSAISSSDGSTYYSDSVKGRFTISRDSSMNTLYLQMDSLRVEDTAVYFCARAVVSSDITYTYWSKYFDYWGQGTLVTVSS
VL: QSVVTQPPSVSAAPGQKVTISCSGGSFNIGNNYVSWYQQLPGTAPKLLIYDNDNRPSGIPDRFSGSKSGTSATLDITGLQTGDEADYYCGTWDSSLNVVVFGGGTKLTVL
B1 showed a Kd [1] of 47 nM and a Kd [2] of 50 nM.

B2: Human CD81 large extracellular loop (CD81-LEL; CD81 residues 113 to 201) (domain or fragment, UniProt P60033 113-201, looked up)
chain: FVNKDQIAKDVKQFYDQALQQAVVDDDANNAKAVVKTFHETLDCCGSSTLTALTTSVLKNNLCPSGSNIISNLFKEDCHQKIDDLFSGK
notes: human CD81 large extracellular loop, residues 113 to 201; Cloned into the vector pHLsec (Addgene plasmid #99845 is the vector); The C-terminal His6 tag was stripped with carboxypeptidase A-agarose before biolayer interferometry; also called recombinant CD81; source: FreeStyle HEK293-F cells, transfected, secreted; purified from culture supernatant (HiTrap chelating HP Ni2+-NTA, Superdex 75); not …
B2 showed a Kd [3] of 440 ± 38 nM and a Kd [4] of 510 ± 22 nM.
